{"source": "patent US20240207432A1", "about": "(BIOSION, published 2024)", "key": {"human TROP2-his protein [1]": {"target": "T1, human TROP2-his protein (human, UniProt P09758 27-274)", "T1 construct": "Biotin-labelled in the ELISAs, unlabelled analyte in Biacore; also called biotin-labeled human TROP2-his protein; biotin human Trop2-his", "T1 sequence": "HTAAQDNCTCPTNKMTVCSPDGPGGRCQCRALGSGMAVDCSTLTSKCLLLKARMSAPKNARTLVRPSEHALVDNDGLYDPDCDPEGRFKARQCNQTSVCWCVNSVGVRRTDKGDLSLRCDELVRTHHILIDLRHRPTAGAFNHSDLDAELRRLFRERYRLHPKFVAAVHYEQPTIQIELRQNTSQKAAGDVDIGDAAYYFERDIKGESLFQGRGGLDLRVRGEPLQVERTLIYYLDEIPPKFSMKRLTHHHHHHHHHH", "assay": "SPR Biacore T200, benchmark captured on Protein G chip, TROP2-his analyte", "description": "(§1) Un-reacted moieties on the chip (biosensor) surface were blocked with ethanolamine. […] The antigen-antibody association kinetics was followed for 2 minutes and the dissociation kinetics was followed for 10 minutes. The association and dissociation curves were fit to a 1:1 Langmuir binding model using BIAcore evaluation software."}, "[2]": {"target": "T2, cynomolgus TROP2-his protein (cynomolgus monkey, UniProt P09758 27-272 (human entry), limits assumed)", "T2 construct": "no cleavage site is stated; also called Cynomolgus monkey TROP2-his protein; monkey TROP2", "T2 chain": "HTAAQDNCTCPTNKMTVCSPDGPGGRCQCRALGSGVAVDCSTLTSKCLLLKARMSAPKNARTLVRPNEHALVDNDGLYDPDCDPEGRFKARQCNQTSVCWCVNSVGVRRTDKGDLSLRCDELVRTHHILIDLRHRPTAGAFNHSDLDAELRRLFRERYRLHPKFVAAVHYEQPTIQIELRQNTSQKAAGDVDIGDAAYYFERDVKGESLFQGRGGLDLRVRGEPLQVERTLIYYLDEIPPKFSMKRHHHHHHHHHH", "assay": "SPR Biacore T200, benchmark captured on Protein G chip, TROP2-his analyte", "description": "as §1"}, "human TROP2-his protein [3]": {"target": "T1, human TROP2-his protein", "assay": "SPR Biacore, antibody captured on anti-human IgG CM5 chip, TROP2-his analyte", "description": "as §1"}, "human TROP2-his protein [4]": {"target": "T1, human TROP2-his protein", "assay": "capture ELISA, captured antibody, biotin human TROP2-his in solution, OD(450-630)", "description": "(§2) Plates were washed once with wash buffer (PBS+0.05% v/v Tween-20, PBST) and then blocked with 200 μl/well blocking buffer (5% w/v non-fatty milk in PBST) for 2 hours at 37° C. […] Plates containing captured anti-TROP2 antibodies were incubated with biotin-labeled human TROP2-his protein (prepared in house, SEQ ID NO: 67, 56.7 ng/mL in 2.5% w/v non-fatty milk in PBST, 100 μl/well) for 40 minutes at 37° C., washed 4 times, and incubated with streptavidin conjugated HRP (1:10000 dilution in PBST, Jackson Immuno Research, Cat #016-030-084, 100 μl/well) for 40 minutes at 37° C. After a final wash, plates were incubated with 100 μl/well ELISA substrate TMB (Innoreagents, Cat #TMB-S-002) at room temperature. The reaction was stopped in 3-10 minutes at room temperature with 50 μl/well 1M H₂SO₄, and the absorbance of each well was read on a microplate reader using dual wavelength mode with 450 nm for TMB and 630 nm as the reference wavelength. The OD (450-630) values were plotted against antibody concentration. Data was analyzed using Graphpad Prism software and EC₅₀ values were reported."}, "human TROP2-his protein [5]": {"target": "T1, human TROP2-his protein", "assay": "capture ELISA, antibody captured on anti-human IgG Fc coat, biotin human TROP2-his in solution, OD(450-630)", "description": "as §2\nFor the capture ELISA, AffiniPure Goat Anti-Human IgG, Fcγ fragment specific (Jackson Immuno Research, Cat #109-005-098) was used instead of AffiniPure Goat Anti-Mouse IgG, Fcγ fragment specific, 100 μl/well."}, "human TROP2-his protein [6]": {"target": "T1, human TROP2-his protein", "assay": "competitive ELISA: BM1 coated at 1 ug/mL, antibody premixed with biotin human TROP2-his; blocked: binding of TROP2-his to coated BM1 (self-competition)", "description": "(§3) The mouse anti-TROP2 antibodies were tested for epitope binding in a competitive ELISA assay. […] ELISA plates were washed once with wash buffer (PBS+0.05% v/v Tween-20, PBST) and then blocked with 200 μl blocking buffer (5% w/v non-fatty milk in PBST) for 2 hours at 37° C. While blocking, the anti-TROP2 antibodies or controls were diluted with biotin labeled human TROP2-his protein (SEQ ID NO: 67, 34 ng/mL in 2.5% wA non-fatty milk in PBST), starting at 80 nM with a 5-fold serial dilution, and incubated at room temperature for 40 minutes. After plate washing for 4 times, the antibody/TROP2-his protein mixtures were added to the antibody coated plates, 100 μl per well. After incubation at 37° C. for 40 minutes, plates were washed 4 times again using wash buffer. Then the plates were added and incubated with 100 μl Peroxidase Streptavidin (1:10000 dilution in PBST buffer. Jackson Immunoresearch, Cat #016-030-084) for 40 minutes at 37° C. Plates were washed again using wash buffer. Finally, TMB was added and the reaction was stopped using 1M H₂SO₄. The absorbance of each well was read on a microplate reader using dual wavelength mode with 450 nm for TMB and 630 nm as the reference wavelength, and the OD (450-630) values were plotted against antibody concentration. Data was analyzed using Graphpad Prism software and IC₅₀ values were reported."}, "human TROP2-his protein [7]": {"target": "T1, human TROP2-his protein", "assay": "competitive ELISA: mouse A1E11A12D1 coated at 2 ug/mL, antibody premixed with biotin human TROP2-his; blocked: binding of TROP2-his to coated A1E11A12D1; no lower plateau reached at 80 nM", "description": "as §3"}, "human TROP2-his protein [8]": {"target": "T1, human TROP2-his protein", "assay": "SPR Biacore, compared with BM2"}, "human TROP2-his protein [9]": {"target": "T1, human TROP2-his protein", "assay": "SPR Biacore T200, supernatant antibody captured on anti-human IgG CM5 chip, 40 nM human TROP2-his", "description": "The goat anti-human IgG (GE healthcare, Cat #BR100839, Human Antibody Capture Kit) was covalently linked to a CM5 chip instead of goat anti-mouse IgG. […] The human TROP2-his protein at the concentration of 40 nM was used instead of serially diluted human TROP2-his protein."}}}
{"binder": "benchmark (in house prepared sacituzumab) (antibody, human IgG1, kappa, V domains shown, also called BM; BM1) VH: SVQLQQSGSELKKPGASVKVSCKASGYTFTNYGMNWVKQAPGQGLKWMGWINTYTGEPTYTDDFKGRFAFSLDTSVSTAYLQISSLKADDTAVYFCARGGFGSSYWYFDVWGQGSLVTVSS VL: DIQLTQSPSSLSASVGDRVSITCKASQDVSIAVAWYQQKPGKAPKLLIYSASYRYTGVPDRFSGSGSGTDFTLTISSLQPEDFAVYYCQQHYITPLTFGAGTKVEIKR", "values": [{"measurement": "Kd", "setting": "human TROP2-his protein [1]", "value": 0.868, "unit": "nM"}, {"measurement": "Kd", "setting": "[2]", "value": 0.557, "unit": "nM"}, {"measurement": "Kd", "setting": "human TROP2-his protein [3]", "value": 0.385, "unit": "nM"}, {"measurement": "EC50", "setting": "human TROP2-his protein [4]", "value": 0.487, "unit": "nM"}, {"measurement": "EC50", "setting": "human TROP2-his protein [5]", "value": 0.27, "unit": "nM"}, {"measurement": "IC50", "setting": "human TROP2-his protein [6]", "value": 1.28, "unit": "nM"}]}
{"binder": "mouse antibody A1H3C5H8E12 (antibody, V domains shown, Mouse monoclonal IgG purified from hybridoma supernatant) VH: QVQLQQSGAELVRPGTSVKMSCKAAGYTFTNYWIDWVKQRPGHGLEWIGNIFPGGFYTNYNEKFKGKATLTADTSSSTAYMQLSSLTSEDSAIYYCARGGVFDYWGQGTTLTVSS VL: DILLTQSPAILSVSPGERVSFSCRASQSIGTSIHWYQQRTNGSPRLLIKYASESISGIPSRFSGSGSGTDFTLSINSVESEDIADYYCQQSNSWPYTFGGGTKLEIK", "values": [{"measurement": "IC50", "setting": "human TROP2-his protein [7]", "value": 9.92, "unit": "nM"}]}
{"binder": "huA1E4F7D4-V16 (antibody, human IgG1, kappa, V domains shown, Positions of the X residues are given in the claims; also called humanized antibody huA1E4F7D4-V16) VH: QVQLVQSGAEVKKPGASVKVSCKASGYSFTTHWIHWVRQAPGQGLEWIGTIFPSNAYAVYNQKFRDRATMTADTSISTAYIELSRLRSDDTAVYYCARASYFDYWGQGTTVTVSS VL: EIVLTQSPATLSLSPGERATLSCRASQNIGTSIHWFQQKPGGAPRLLIKYASESISGIPSRFSGSGSGTDFTLTISSLEPEDFAVYYCQHSHSWPFTFGQGTKLEIKR", "values": [{"measurement": "fold higher affinity than BM2", "setting": "human TROP2-his protein [8]", "value": "> 100", "unit": "fold"}, {"measurement": "Kd", "setting": "human TROP2-his protein [9]", "value": 0.137, "unit": "nM"}, {"measurement": "koff", "setting": "human TROP2-his protein [9]", "value": 0.000175, "unit": "s⁻¹"}, {"measurement": "kon", "setting": "human TROP2-his protein [9]", "value": "1.28e+06", "unit": "M⁻¹ s⁻¹"}]}
